Source: US20210230570
Residue numbers refer to the chain shown, from its start. Names may count otherwise.

B1: FIXa-Y155F/K247N/N249S/R318Y/R338E/R403E/E410N (protein)
chain 1: YNSGKLEEFVQGNLERECMEEKCSFEEAREVFENTERTTEFWKQYVDGDQCESNPCLNGGSCKDDINSYECWCPFGFEGKNCELDVTCNIKNGRCEQFCKNSADNKVVCSCTEGYRLAENQKSCEPAVPFPCGRVSVSQTSKLTR
chain 2: VVGGEDAKPGQFPWQVVLNGKVDAFCGGSIVNEKWIVTAAHCVETGVKITVVAGEHNIEETEHTEQNRSVIRIIPHHNYNAAINKYNHDIALLELDEPLVLNSYVTPICIADKEYTNIFLKFGSGYVSGWGRVFHKGYSALVLQYLRVPLVDRATCLESTKFTIYNNMFCAGFHEGGRDSCQGDSGGPHVTEVEGTSFLTGIISWGEECAMKGKYGIYTKVSEYVNWIKNKTKLT
B2: FIXa-R318Y/R338E/R403E/E410N/T412A (protein)
chain 1: B1 chain 1
chain 2: B1 chain 2 with N67K, S69N, T232A
B3: FIXa-Y155F/K247N/N249S/R318Y/R338E/E410N (protein)
chain 1: B1 chain 1
chain 2: B1 chain 2 with E223R
B4: FIXa-R318Y/R338E/R403E/E410N/T412V (protein)
chain 1: B1 chain 1
chain 2: B1 chain 2 with N67K, S69N, T232V
B5: FIXa-A103N/N105S/K247N/N249S/R318Y/R338E/R403E/E410N (protein)
chain 1: B1 chain 1 with A103N, N105S
chain 2: B1 chain 2
B6: FIXa-R318Y/R338E/R403E/E410S (protein)
chain 1: B1 chain 1
chain 2: B1 chain 2 with N67K, S69N, N230S
B7: FIXa R318Y/R338E/R403E/E410N/T412V (protein)
chain 1: B1 chain 1
chain 2: B1 chain 2 with N67K, S69N, T232V
B8: FIXa-K247N/N249S/N260S (protein)
chain 1: B1 chain 1
chain 2: B1 chain 2 with N80S, Y138R, E158R, E223R, N230E
B9: FIXa K228N/K247N/N249S/R318Y/R338E/R403E/E410N (protein)
chain 1: B1 chain 1
chain 2: B1 chain 2 with K48N
B10: FIXa-Y155F/K247N/N249S/N260S (protein)
chain 1: B1 chain 1
chain 2: B1 chain 2 with N80S, Y138R, E158R, E223R, N230E
B11: FIXa-D104N/K106S/K247N/N249S/N260S (protein)
chain 1: B1 chain 1 with D104N, K106S
chain 2: B1 chain 2 with N80S, Y138R, E158R, E223R, N230E
B12: FIXa R318Y/R338E/R403E/E410N/T412A (protein)
chain 1: B1 chain 1
chain 2: B1 chain 2 with N67K, S69N, T232A
B13: FIXa K247N/N249S/R318Y/R338E/R403E/E410N (protein)
chain 1: B1 chain 1
chain 2: B1 chain 2
B14: FIXa Y155F/K247N/N249S/R318Y/R338E/R403E/E410N (protein)
chain 1: B1 chain 1
chain 2: B1 chain 2
B15: FIXa D104N/K106S/I251S/R318Y/R338E/E410N (protein)
chain 1: B1 chain 1 with D104N, K106S
chain 2: B1 chain 2 with N67K, S69N, I71S, E223R
B16: FIXa K228N/K247N/N249S (protein)
chain 1: B1 chain 1
chain 2: B1 chain 2 with K48N, Y138R, E158R, E223R, N230E
B17: FIXa K228N/R318Y/R338E/R403E/E410N (protein)
chain 1: B1 chain 1
chain 2: B1 chain 2 with K48N, N67K, S69N
B18: FIXa Y259F/K265T/Y345T (protein)
chain 1: B1 chain 1
chain 2: B1 chain 2 with N67K, S69N, Y79F, K85T, Y138R, E158R, Y165T, E223R, N230E
B19: FIXa R318Y/R338E/T412A (protein)
chain 1: B1 chain 1
chain 2: B1 chain 2 with N67K, S69N, E223R, N230E, T232A
B20: FIXa R318Y/R338E/N346D/R403E/E410N (protein)
chain 1: B1 chain 1
chain 2: B1 chain 2 with N67K, S69N, N166D
B21: FIXa Y155F/K247N/N249S/R318Y/R338E/E410N (protein)
chain 1: B1 chain 1
chain 2: B1 chain 2 with E223R
B22: FIXa R318Y/R338E/R403E/E410S (protein)
chain 1: B1 chain 1
chain 2: B1 chain 2 with N67K, S69N, N230S
B23: FIXa N260S/R318Y/R338E/R403E/E410N (protein)
chain 1: B1 chain 1
chain 2: B1 chain 2 with N67K, S69N, N80S
B24: FIXa D104N/K106S/K228N/K247N/N249S (protein)
chain 1: B1 chain 1 with D104N, K106S
chain 2: B1 chain 2 with K48N, Y138R, E158R, E223R, N230E
B25: FIXa Y155F/I251S/R318Y/R338E/R403E/E410N (protein)
chain 1: B1 chain 1
chain 2: B1 chain 2 with N67K, S69N, I71S
B26: FIXa A103N/N105S/K247N/N249S/R318Y/R338E/R403E/E410N (protein)
chain 1: B1 chain 1 with A103N, N105S
chain 2: B1 chain 2
B27: FIXa Y155F/K228N/K247N/N249S (protein)
chain 1: B1 chain 1
chain 2: B1 chain 2 with K48N, Y138R, E158R, E223R, N230E
B28: FIXa R318Y/R338E/E410S (protein)
chain 1: B1 chain 1
chain 2: B1 chain 2 with N67K, S69N, E223R, N230S
B29: FIXa D104N/K106S/I251S/R318Y/R338E/R403E/E410N (protein)
chain 1: B1 chain 1 with D104N, K106S
chain 2: B1 chain 2 with N67K, S69N, I71S
B30: FIXa I251S/R318Y/R338E/R403E/E410N (protein)
chain 1: B1 chain 1
chain 2: B1 chain 2 with N67K, S69N, I71S
B31: FIXa R318Y/R338E/E410N/T412V (protein)
chain 1: B1 chain 1
chain 2: B1 chain 2 with N67K, S69N, E223R, T232V
B32: FIXa D104N/K106S/K247N/N249S/R318Y/R338E/R403E/E410N (protein)
chain 1: B1 chain 1 with D104N, K106S
chain 2: B1 chain 2
B33: FIXa Y155F/N260S/R318Y/R338E/R403E/E410N (protein)
chain 1: B1 chain 1
chain 2: B1 chain 2 with N67K, S69N, N80S
B34: FIXa D104N/K106S/N260S/R318Y/R338E/R403E/E410N (protein)
chain 1: B1 chain 1 with D104N, K106S
chain 2: B1 chain 2 with N67K, S69N, N80S
B35: FIXa D85N/K228N/R318Y/R338E/R403E/E410N (protein)
chain 1: B1 chain 1 with D85N
chain 2: B1 chain 2 with K48N, N67K, S69N
B36: FIXa D104N/K106S/Y155F/K228N/K247N/N249S (protein)
chain 1: B1 chain 1 with D104N, K106S
chain 2: B1 chain 2 with K48N, Y138R, E158R, E223R, N230E
B37: FIXa Y155F/K228N/R318Y/R338E/R403E/E410N (protein)
chain 1: B1 chain 1
chain 2: B1 chain 2 with K48N, N67K, S69N
B38: FIXa I251S/R318Y/R338E/E410N (protein)
chain 1: B1 chain 1
chain 2: B1 chain 2 with N67K, S69N, I71S, E223R
B39: FIXa K247N/N249S/R318Y/R338E/E410N (protein)
chain 1: B1 chain 1
chain 2: B1 chain 2 with E223R
B40: FIXa R318Y/R338E/R403E/T412A (protein)
chain 1: B1 chain 1
chain 2: B1 chain 2 with N67K, S69N, N230E, T232A

These proteins were tested against plasma purified human AT-III (antithrombin III), in complex with full-length unfractionated heparin (AT-III/UFH).

| Protein | K0.5-mut/K0.5-wt (against Catalyst Biosciences WT FIXa) |
| --- | --- |
| B1 | > 517 |
| B2 | > 517 |
| B3 | 200 |
| B4 | > 517 |
| B5 | 129 |
| B6 | > 517 |

What follows are proteins tested against Factor X, P00742.
Chain of Factor X, P00742 (P00742 whole entry, looked up): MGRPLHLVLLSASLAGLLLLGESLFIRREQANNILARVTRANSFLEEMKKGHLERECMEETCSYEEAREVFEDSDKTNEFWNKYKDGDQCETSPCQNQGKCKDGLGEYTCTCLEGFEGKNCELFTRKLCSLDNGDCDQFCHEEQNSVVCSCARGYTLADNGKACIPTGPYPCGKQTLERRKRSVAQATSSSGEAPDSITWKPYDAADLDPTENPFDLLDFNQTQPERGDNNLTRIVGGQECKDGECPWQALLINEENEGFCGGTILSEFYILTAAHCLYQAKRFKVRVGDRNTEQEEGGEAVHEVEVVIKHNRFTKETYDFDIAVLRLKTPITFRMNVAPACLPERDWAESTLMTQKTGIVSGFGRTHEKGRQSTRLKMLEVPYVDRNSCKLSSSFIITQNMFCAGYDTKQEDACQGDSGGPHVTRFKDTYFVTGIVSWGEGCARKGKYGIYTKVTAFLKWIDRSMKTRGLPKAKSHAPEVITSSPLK

| Protein | kcat of FX activation by FIXa (Xase complex with FVIIIa, PC/PS vesicles, Ca2+) [s⁻¹] |
| --- | --- |
| B1 | 6.5 |
| B2 | 8.4 |
| B3 | 4.3 |
| B4 | 7.9 |
| B5 | 4.1 |
| B6 | 5.8 |

Each protein was assayed against Factor X (FX), P00742.
Chain of Factor X (FX), P00742 (P00742 whole entry, looked up): as above

| Protein | kcat/KM [M⁻¹ s⁻¹] | KM [µM] | KM (nM); Catalytic activity of FIXa variants (KM) [nM] | kcat of FX activation by FIXa in the Xase complex (FVIIIa, PC/PS vesicles, Ca2+) [s⁻¹] |
| --- | --- | --- | --- | --- |
| B1 | 1.9e+08 |  |  |  |
| B2 | 2.6e+08 |  |  |  |
| B3 | 3.3e+08 |  |  |  |
| B7 |  | 0.0443 |  |  |
| B8 |  |  | 114 | 3.3 |
| B4 | 1.9e+08 |  |  |  |
| B9 |  | 0.0558 |  |  |
| B10 |  |  | 96.5 | 1.8 |
| B11 |  |  | 61.2 | 0.6 |
| B5 | 1.5e+08 |  |  |  |
| B6 | 2.1e+08 |  |  |  |
| B12 |  | 0.0335 |  |  |

What follows are proteins tested against Antithrombin III (plasma purified human AT-III, Molecular Innovations), as AT-III/UFH complex.

| Protein | K0.5-mut/K0.5-wt (against Catalyst Biosciences WT FIXa) |
| --- | --- |
| B8 | 8.1 |
| B10 | 7.9 |
| B11 | 65.3 |

These proteins were tested against plasma purified human antithrombin III (AT-III) in complex with full-length unfractionated heparin (UFH).

| Protein | K0.5-mut/K0.5-wt [fold] |
| --- | --- |
| B13 | 418 |
| B14 | > 517 |
| B15 | 464 |
| B16 | 4.4 |
| B17 | > 517 |
| B18 | 0.3 |
| B7 | > 517 |
| B19 | 396 |
| B20 | > 517 |
| B21 | 200 |
| B22 | > 517 |
| B23 | > 517 |
| B24 | 2.1 |
| B25 | > 517 |
| B26 | 129 |
| B27 | 1.4 |

| Protein | K0.5-mut/K0.5-wt [fold] |
| --- | --- |
| B28 | 279 |
| B29 | > 517 |
| B30 | > 517 |
| B31 | 252 |
| B32 | > 517 |
| B9 | > 517 |
| B33 | 501 |
| B34 | > 517 |
| B35 | > 517 |
| B36 | 1.6 |
| B37 | > 517 |
| B38 | 303 |
| B39 | 78.3 |
| B12 | > 517 |
| B40 | > 517 |
